Measurements as given in patent US12458691.

Columns and labels:
[1] = target: FP8-KLH (HIV-1 strain BG505); assay: BLI (Octet), IgG on the sensor, apparent KD with IgG avidity
[2] = target: FP8-1Y12 (HIV-1 strain BG505); assay: apparent KD; Octet BLI, antibody IgG on sensor (method per paragraph 361)
[3] = target: FP8-3HSH (HIV-1 strain BG505); assay: as above
[4] = target: FP-LS (Aquifex aeolicus (strain VF5)) (UniProt O66529); assay: apparent KD (table head 'Apparent KD value (nM)'); Octet BLI with IgG on the sensor per paragraph 361
FP-LS (Aquifex aeolicus (strain VF5)), sequence (O66529 other isoform, or with tags, fused parts or gaps): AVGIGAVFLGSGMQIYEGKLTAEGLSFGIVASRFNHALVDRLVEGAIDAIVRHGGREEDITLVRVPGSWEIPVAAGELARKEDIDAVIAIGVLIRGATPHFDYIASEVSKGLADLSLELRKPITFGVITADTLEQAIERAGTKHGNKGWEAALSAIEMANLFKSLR

[5] = target: FP8-TTHc (sulfo-SIAB activation, 1:1 molar ratio) (HIV-1 strain BG505); assay: Octet, purified conjugate
FP8-TTHc (sulfo-SIAB activation, 1:1 molar ratio) (HIV-1 strain BG505), sequence (P04958 865-1315, tags left off): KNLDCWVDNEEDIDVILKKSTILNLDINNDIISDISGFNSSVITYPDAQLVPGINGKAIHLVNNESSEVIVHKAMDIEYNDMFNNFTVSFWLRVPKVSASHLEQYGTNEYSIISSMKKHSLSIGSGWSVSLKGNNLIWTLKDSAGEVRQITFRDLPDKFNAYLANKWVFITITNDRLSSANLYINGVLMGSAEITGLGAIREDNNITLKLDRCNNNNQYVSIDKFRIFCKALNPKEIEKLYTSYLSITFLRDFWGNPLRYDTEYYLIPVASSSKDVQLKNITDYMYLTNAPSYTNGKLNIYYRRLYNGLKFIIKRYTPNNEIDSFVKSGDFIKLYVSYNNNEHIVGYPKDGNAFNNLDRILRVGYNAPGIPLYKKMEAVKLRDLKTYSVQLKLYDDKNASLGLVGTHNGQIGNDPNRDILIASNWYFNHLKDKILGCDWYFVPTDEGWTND

[6] = target: FP8-TTHc (sulfo-SIAB activation, 0.5:1 molar ratio) (HIV-1 strain BG505); assay: Octet, purified conjugate
FP8-TTHc (sulfo-SIAB activation, 0.5:1 molar ratio) (HIV-1 strain BG505), sequence (P04958 865-1315, tags left off): as above

[7] = target: FP8-TTHc (MBS activation, 1:1 molar ratio) (HIV-1 strain BG505); assay: Octet, purified conjugate
FP8-TTHc (MBS activation, 1:1 molar ratio) (HIV-1 strain BG505), sequence (P04958 865-1315, tags left off): as above

[8] = target: FP8-1Y12 (HIV-1 strain BG505); assay: BLI (Octet), IgG on the sensor, apparent KD with IgG avidity
[9] = target: FP8-3HSH (HIV-1 strain BG505); assay: as above
[10] = target: His-tagged fusion peptide (residue 512-521) (HIV-1 strain BG505); assay: SPR, Fab over His-tagged fusion peptide on Ni-NTA chip, 1:1 fit

FP8-KLH (HIV-1 strain BG505), sequence (Q10583 17-3414): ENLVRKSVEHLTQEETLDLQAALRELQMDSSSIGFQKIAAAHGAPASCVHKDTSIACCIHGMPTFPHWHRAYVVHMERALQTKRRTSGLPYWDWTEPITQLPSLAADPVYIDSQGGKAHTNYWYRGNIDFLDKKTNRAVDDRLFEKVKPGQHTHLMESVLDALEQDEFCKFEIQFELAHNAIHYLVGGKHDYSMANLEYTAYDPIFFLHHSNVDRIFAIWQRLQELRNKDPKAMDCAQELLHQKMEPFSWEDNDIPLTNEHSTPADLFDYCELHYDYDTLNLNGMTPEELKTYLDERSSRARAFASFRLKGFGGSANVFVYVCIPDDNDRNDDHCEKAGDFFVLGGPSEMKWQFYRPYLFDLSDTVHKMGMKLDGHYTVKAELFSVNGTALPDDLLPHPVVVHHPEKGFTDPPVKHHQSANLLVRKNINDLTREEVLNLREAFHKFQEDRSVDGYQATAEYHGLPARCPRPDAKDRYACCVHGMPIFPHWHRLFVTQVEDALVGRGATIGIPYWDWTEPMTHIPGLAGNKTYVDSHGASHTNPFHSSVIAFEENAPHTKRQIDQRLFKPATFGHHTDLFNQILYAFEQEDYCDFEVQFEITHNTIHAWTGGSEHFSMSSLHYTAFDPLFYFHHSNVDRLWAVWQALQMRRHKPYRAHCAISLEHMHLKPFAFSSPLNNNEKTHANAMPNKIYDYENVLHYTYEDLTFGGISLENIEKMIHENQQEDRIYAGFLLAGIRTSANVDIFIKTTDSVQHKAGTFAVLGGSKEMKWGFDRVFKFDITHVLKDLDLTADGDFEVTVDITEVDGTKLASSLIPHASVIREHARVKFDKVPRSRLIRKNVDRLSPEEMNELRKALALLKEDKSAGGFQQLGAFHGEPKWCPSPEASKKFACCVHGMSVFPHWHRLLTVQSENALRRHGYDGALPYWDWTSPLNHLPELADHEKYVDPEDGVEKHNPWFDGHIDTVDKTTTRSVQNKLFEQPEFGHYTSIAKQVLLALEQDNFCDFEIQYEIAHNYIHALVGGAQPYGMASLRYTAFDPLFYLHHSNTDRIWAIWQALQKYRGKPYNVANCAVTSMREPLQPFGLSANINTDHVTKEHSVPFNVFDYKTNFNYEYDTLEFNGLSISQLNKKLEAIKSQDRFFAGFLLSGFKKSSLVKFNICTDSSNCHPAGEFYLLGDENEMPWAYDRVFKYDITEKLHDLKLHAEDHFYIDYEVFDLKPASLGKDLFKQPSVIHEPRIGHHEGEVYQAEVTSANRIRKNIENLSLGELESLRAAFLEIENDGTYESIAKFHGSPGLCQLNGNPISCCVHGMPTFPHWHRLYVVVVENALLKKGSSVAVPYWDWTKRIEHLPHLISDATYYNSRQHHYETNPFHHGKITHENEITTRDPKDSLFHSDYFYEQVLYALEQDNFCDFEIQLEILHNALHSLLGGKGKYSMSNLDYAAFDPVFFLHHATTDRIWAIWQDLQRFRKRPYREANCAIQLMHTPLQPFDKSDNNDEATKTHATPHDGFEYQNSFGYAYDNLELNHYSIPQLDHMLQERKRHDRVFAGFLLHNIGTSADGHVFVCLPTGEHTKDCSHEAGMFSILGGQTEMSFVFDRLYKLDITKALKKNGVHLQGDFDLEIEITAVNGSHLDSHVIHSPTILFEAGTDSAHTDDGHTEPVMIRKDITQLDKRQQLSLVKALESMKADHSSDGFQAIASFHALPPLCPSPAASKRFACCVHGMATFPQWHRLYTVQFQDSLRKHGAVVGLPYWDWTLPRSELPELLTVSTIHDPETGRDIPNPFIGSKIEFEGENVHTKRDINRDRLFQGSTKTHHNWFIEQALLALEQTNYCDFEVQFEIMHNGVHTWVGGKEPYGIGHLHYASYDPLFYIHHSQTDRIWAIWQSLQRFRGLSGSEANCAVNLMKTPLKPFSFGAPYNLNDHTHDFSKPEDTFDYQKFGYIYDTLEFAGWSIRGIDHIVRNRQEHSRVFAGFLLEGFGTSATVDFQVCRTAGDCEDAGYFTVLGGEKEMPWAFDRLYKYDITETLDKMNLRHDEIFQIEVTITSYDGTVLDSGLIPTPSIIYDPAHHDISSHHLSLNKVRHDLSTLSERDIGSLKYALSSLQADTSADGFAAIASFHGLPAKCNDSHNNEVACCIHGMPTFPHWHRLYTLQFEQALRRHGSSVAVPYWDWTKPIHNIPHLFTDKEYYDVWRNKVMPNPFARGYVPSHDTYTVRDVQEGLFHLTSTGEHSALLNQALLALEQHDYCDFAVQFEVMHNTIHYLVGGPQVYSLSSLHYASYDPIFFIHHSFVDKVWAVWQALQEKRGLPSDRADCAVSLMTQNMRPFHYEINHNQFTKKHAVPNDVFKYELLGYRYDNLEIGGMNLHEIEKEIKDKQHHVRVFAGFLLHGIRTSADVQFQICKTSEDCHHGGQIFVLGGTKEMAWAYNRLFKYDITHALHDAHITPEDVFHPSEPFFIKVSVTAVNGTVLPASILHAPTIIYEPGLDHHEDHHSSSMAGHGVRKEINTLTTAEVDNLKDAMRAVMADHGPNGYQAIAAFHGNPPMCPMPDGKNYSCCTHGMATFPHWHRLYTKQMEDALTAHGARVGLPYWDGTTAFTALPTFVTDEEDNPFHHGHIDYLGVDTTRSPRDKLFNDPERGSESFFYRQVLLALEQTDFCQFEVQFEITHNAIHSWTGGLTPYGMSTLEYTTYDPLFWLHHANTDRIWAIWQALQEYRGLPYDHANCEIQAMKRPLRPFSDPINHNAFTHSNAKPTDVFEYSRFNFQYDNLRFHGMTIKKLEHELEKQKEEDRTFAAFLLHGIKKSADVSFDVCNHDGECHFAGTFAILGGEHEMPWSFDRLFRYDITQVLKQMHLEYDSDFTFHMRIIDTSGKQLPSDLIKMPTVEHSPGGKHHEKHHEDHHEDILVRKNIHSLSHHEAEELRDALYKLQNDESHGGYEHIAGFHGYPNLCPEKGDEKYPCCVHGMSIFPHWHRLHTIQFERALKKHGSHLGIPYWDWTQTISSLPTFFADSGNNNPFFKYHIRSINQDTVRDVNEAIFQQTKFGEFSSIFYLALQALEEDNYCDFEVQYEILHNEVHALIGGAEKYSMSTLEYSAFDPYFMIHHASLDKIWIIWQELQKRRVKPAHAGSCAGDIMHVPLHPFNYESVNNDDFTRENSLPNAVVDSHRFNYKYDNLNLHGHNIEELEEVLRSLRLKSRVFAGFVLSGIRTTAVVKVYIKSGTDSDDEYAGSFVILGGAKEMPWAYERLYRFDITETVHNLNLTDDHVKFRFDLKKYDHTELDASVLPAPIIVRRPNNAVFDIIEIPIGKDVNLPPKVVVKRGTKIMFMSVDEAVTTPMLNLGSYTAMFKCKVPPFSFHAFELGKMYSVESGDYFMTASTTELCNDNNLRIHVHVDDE

Substance: ACS202 (antibody)
- Kd [1]: < 0.001 nM

Substance: PGT151 (antibody)
- Kd [2]: < 0.001 nM
- Kd [3]: < 0.001 nM
- Kd [4]: < 0.001 nM
- Kd [5]: 2.8 nM
- Kd [6]: 3.6 nM
- Kd [7]: 2.3 nM
- Kd [8]: < 0.001 nM
- Kd [9]: 47.2 nM

Substance: VRC34.01 Fab
- Kd [10]: 6.17 nM
- koff [10]: 0.00924 s⁻¹
- kon [10]: 1.5e+06 M⁻¹ s⁻¹
